Data from the supplement of paper PMC9112550, “Optimization of the antimicrobial peptide Bac7 by deep mutational scanning” (BMC Biology, 2022).

Tested on: Escherichia coli TOP10
Assay: shrunken log2 fold change of peptide-encoding DNA abundance (4.5 h post-induction vs induction); higher = less antimicrobial activity (less host growth inhibition)
Conditions: time post-induction: 4.5 h; library: site-saturation at positions 5, 18, 19, 20
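Further: peptides expressed intracellularly from a pBAD plasmid library in pooled LB shake-flask culture, induced with 0.3% L-arabinose, DNA abundance read by NGS, three biological replicates, DESeq2 with apeglm shrinkage.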

## RRIRMRPPRLPRPRPRPCMGPRP
  shrunken log2 fold change: -0.28

## RRIRMRPPRLPRPRPRPCMLPRP
  shrunken log2 fold change: 0.303

## RRIRMRPPRLPRPRPRPCNYPRP
  shrunken log2 fold change: 0.0171

## RRIRMRPPRLPRPRPRPCPMPRP
  shrunken log2 fold change: -0.0993

## RRIRMRPPRLPRPRPRPCQHPRP
  shrunken log2 fold change: -0.188

## RRIRMRPPRLPRPRPRPCRVPRP
  shrunken log2 fold change: 0.00805

## RRIRMRPPRLPRPRPRPCSGPRP
  shrunken log2 fold change: -0.146

## RRIRMRPPRLPRPRPRPCTGPRP
  shrunken log2 fold change: -0.0444

## RRIRMRPPRLPRPRPRPCTSPRP
  shrunken log2 fold change: 0.0228

## RRIRMRPPRLPRPRPRPCVMPRP
  shrunken log2 fold change: 0.0536

## RRIRMRPPRLPRPRPRPCVQPRP
  shrunken log2 fold change: -0.0115

## RRIRMRPPRLPRPRPRPCWTPRP
  shrunken log2 fold change: -0.218

## RRIRMRPPRLPRPRPRPCYHPRP
  shrunken log2 fold change: -0.265

## RRIRMRPPRLPRPRPRPDAAPRP
  shrunken log2 fold change: 3.98

## RRIRMRPPRLPRPRPRPDDFPRP
  shrunken log2 fold change: 0.938

## RRIRMRPPRLPRPRPRPDDRPRP
  shrunken log2 fold change: -0.012

## RRIRMRPPRLPRPRPRPDEKPRP
  shrunken log2 fold change: -0.0255

## RRIRMRPPRLPRPRPRPDFIPRP
  shrunken log2 fold change: -0.0216

## RRIRMRPPRLPRPRPRPDFYPRP
  shrunken log2 fold change: 0.06

## RRIRMRPPRLPRPRPRPDGAPRP
  shrunken log2 fold change: 2.17

## RRIRMRPPRLPRPRPRPDGIPRP
  shrunken log2 fold change: 1.33

## RRIRMRPPRLPRPRPRPDIKPRP
  shrunken log2 fold change: 1.51

## RRIRMRPPRLPRPRPRPDINPRP
  shrunken log2 fold change: 3.07

## RRIRMRPPRLPRPRPRPDIPPRP
  shrunken log2 fold change: -0.0804

## RRIRMRPPRLPRPRPRPDMEPRP
  shrunken log2 fold change: 0.00931

## RRIRMRPPRLPRPRPRPDNIPRP
  shrunken log2 fold change: -0.184

## RRIRMRPPRLPRPRPRPDNVPRP
  shrunken log2 fold change: -0.0207

## RRIRMRPPRLPRPRPRPDPPPRP
  shrunken log2 fold change: 1.23

## RRIRMRPPRLPRPRPRPDRMPRP
  shrunken log2 fold change: 0.422

## RRIRMRPPRLPRPRPRPDSVPRP
  shrunken log2 fold change: -0.045

## RRIRMRPPRLPRPRPRPDTGPRP
  shrunken log2 fold change: 0.112

## RRIRMRPPRLPRPRPRPDTYPRP
  shrunken log2 fold change: 0.0447

## RRIRMRPPRLPRPRPRPDVAPRP
  shrunken log2 fold change: 0.0335

## RRIRMRPPRLPRPRPRPDWDPRP
  shrunken log2 fold change: 0.211

## RRIRMRPPRLPRPRPRPDWYPRP
  shrunken log2 fold change: -0.135

## RRIRMRPPRLPRPRPRPDYFPRP
  shrunken log2 fold change: -0.121

## RRIRMRPPRLPRPRPRPDYHPRP
  shrunken log2 fold change: -0.457

## RRIRMRPPRLPRPRPRPEAFPRP
  shrunken log2 fold change: 2.91

## RRIRMRPPRLPRPRPRPEAHPRP
  shrunken log2 fold change: 3.52

## RRIRMRPPRLPRPRPRPECCPRP
  shrunken log2 fold change: 3.54

## RRIRMRPPRLPRPRPRPEDLPRP
  shrunken log2 fold change: 4.64

## RRIRMRPPRLPRPRPRPEDQPRP
  shrunken log2 fold change: 0.0267

## RRIRMRPPRLPRPRPRPEDRPRP
  shrunken log2 fold change: -0.0526

## RRIRMRPPRLPRPRPRPEDYPRP
  shrunken log2 fold change: 1.06

## RRIRMRPPRLPRPRPRPEERPRP
  shrunken log2 fold change: 2.6

## RRIRMRPPRLPRPRPRPEFGPRP
  shrunken log2 fold change: 1.22

## RRIRMRPPRLPRPRPRPEFKPRP
  shrunken log2 fold change: 0.335

## RRIRMRPPRLPRPRPRPEFQPRP
  shrunken log2 fold change: 0.372

## RRIRMRPPRLPRPRPRPEGSPRP
  shrunken log2 fold change: 3.63

## RRIRMRPPRLPRPRPRPEHNPRP
  shrunken log2 fold change: 0.465

## RRIRMRPPRLPRPRPRPEHTPRP
  shrunken log2 fold change: 2.63

## RRIRMRPPRLPRPRPRPEIKPRP
  shrunken log2 fold change: 3.3

## RRIRMRPPRLPRPRPRPEISPRP
  shrunken log2 fold change: 0.0502

## RRIRMRPPRLPRPRPRPEKKPRP
  shrunken log2 fold change: 0.104

## RRIRMRPPRLPRPRPRPELKPRP
  shrunken log2 fold change: 0.95

## RRIRMRPPRLPRPRPRPEMLPRP
  shrunken log2 fold change: 3.45

## RRIRMRPPRLPRPRPRPEMSPRP
  shrunken log2 fold change: -0.00133

## RRIRMRPPRLPRPRPRPENMPRP
  shrunken log2 fold change: 0.0343

## RRIRMRPPRLPRPRPRPENTPRP
  shrunken log2 fold change: 0.427

## RRIRMRPPRLPRPRPRPEPQPRP
  shrunken log2 fold change: 2.17

## RRIRMRPPRLPRPRPRPEPWPRP
  shrunken log2 fold change: 1.3

## RRIRMRPPRLPRPRPRPERFPRP
  shrunken log2 fold change: 0.0214

## RRIRMRPPRLPRPRPRPERIPRP
  shrunken log2 fold change: 0.0158

## RRIRMRPPRLPRPRPRPERSPRP
  shrunken log2 fold change: 3.22

## RRIRMRPPRLPRPRPRPESFPRP
  shrunken log2 fold change: 0.0441

## RRIRMRPPRLPRPRPRPESVPRP
  shrunken log2 fold change: 0.958

## RRIRMRPPRLPRPRPRPETEPRP
  shrunken log2 fold change: 3.69

## RRIRMRPPRLPRPRPRPETLPRP
  shrunken log2 fold change: -0.0225

## RRIRMRPPRLPRPRPRPETVPRP
  shrunken log2 fold change: 2.2

## RRIRMRPPRLPRPRPRPEVGPRP
  shrunken log2 fold change: 2.56

## RRIRMRPPRLPRPRPRPEVIPRP
  shrunken log2 fold change: 0.0213

## RRIRMRPPRLPRPRPRPEVPPRP
  shrunken log2 fold change: 1.33

## RRIRMRPPRLPRPRPRPFCIPRP
  shrunken log2 fold change: -0.288

## RRIRMRPPRLPRPRPRPFDAPRP
  shrunken log2 fold change: 0.396

## RRIRMRPPRLPRPRPRPFDTPRP
  shrunken log2 fold change: -0.0634

## RRIRMRPPRLPRPRPRPFEAPRP
  shrunken log2 fold change: 0.655

## RRIRMRPPRLPRPRPRPFFDPRP
  shrunken log2 fold change: 0.232

## RRIRMRPPRLPRPRPRPFGVPRP
  shrunken log2 fold change: 0.0231

## RRIRMRPPRLPRPRPRPFHCPRP
  shrunken log2 fold change: 0.0959

## RRIRMRPPRLPRPRPRPFHKPRP
  shrunken log2 fold change: 0.0887

## RRIRMRPPRLPRPRPRPFHLPRP
  shrunken log2 fold change: -0.0432

## RRIRMRPPRLPRPRPRPFITPRP
  shrunken log2 fold change: -0.456

## RRIRMRPPRLPRPRPRPFIVPRP
  shrunken log2 fold change: -0.414

## RRIRMRPPRLPRPRPRPFIWPRP
  shrunken log2 fold change: 0.0163

## RRIRMRPPRLPRPRPRPFKEPRP
  shrunken log2 fold change: -0.00865

## RRIRMRPPRLPRPRPRPFLEPRP
  shrunken log2 fold change: -0.088

## RRIRMRPPRLPRPRPRPFMTPRP
  shrunken log2 fold change: 0.0622

## RRIRMRPPRLPRPRPRPFNAPRP
  shrunken log2 fold change: 0.00535

## RRIRMRPPRLPRPRPRPFNKPRP
  shrunken log2 fold change: -0.52

## RRIRMRPPRLPRPRPRPFNRPRP
  shrunken log2 fold change: -0.00136

## RRIRMRPPRLPRPRPRPFQWPRP
  shrunken log2 fold change: -0.0962

## RRIRMRPPRLPRPRPRPFSIPRP
  shrunken log2 fold change: -0.11

## RRIRMRPPRLPRPRPRPFVFPRP
  shrunken log2 fold change: 0.0629

## RRIRMRPPRLPRPRPRPFVSPRP
  shrunken log2 fold change: -0.0194

## RRIRMRPPRLPRPRPRPFVTPRP
  shrunken log2 fold change: -0.269

## RRIRMRPPRLPRPRPRPFVVPRP
  shrunken log2 fold change: -0.254

## RRIRMRPPRLPRPRPRPFVWPRP
  shrunken log2 fold change: 0.246

## RRIRMRPPRLPRPRPRPFWCPRP
  shrunken log2 fold change: 0.314

## RRIRMRPPRLPRPRPRPGALPRP
  shrunken log2 fold change: 0.954

## RRIRMRPPRLPRPRPRPGAMPRP
  shrunken log2 fold change: 0.609

## RRIRMRPPRLPRPRPRPGCDPRP
  shrunken log2 fold change: 1.85

## RRIRMRPPRLPRPRPRPGCEPRP
  shrunken log2 fold change: 1.87

## RRIRMRPPRLPRPRPRPGCIPRP
  shrunken log2 fold change: 0.0871

## RRIRMRPPRLPRPRPRPGCPPRP
  shrunken log2 fold change: 0.521

## RRIRMRPPRLPRPRPRPGDDPRP
  shrunken log2 fold change: 1.96

## RRIRMRPPRLPRPRPRPGDVPRP
  shrunken log2 fold change: 0.333

## RRIRMRPPRLPRPRPRPGEFPRP
  shrunken log2 fold change: 0.00408

## RRIRMRPPRLPRPRPRPGEQPRP
  shrunken log2 fold change: 1.48

## RRIRMRPPRLPRPRPRPGGKPRP
  shrunken log2 fold change: 0.583

## RRIRMRPPRLPRPRPRPGGPPRP
  shrunken log2 fold change: 0.119

## RRIRMRPPRLPRPRPRPGGTPRP
  shrunken log2 fold change: 0.722

## RRIRMRPPRLPRPRPRPGHFPRP
  shrunken log2 fold change: 0.274

## RRIRMRPPRLPRPRPRPGHMPRP
  shrunken log2 fold change: -0.203

## RRIRMRPPRLPRPRPRPGHTPRP
  shrunken log2 fold change: 0.488

## RRIRMRPPRLPRPRPRPGKDPRP
  shrunken log2 fold change: 0.0653

## RRIRMRPPRLPRPRPRPGKNPRP
  shrunken log2 fold change: 0.417

## RRIRMRPPRLPRPRPRPGLDPRP
  shrunken log2 fold change: 2.44

## RRIRMRPPRLPRPRPRPGMVPRP
  shrunken log2 fold change: 0.263

## RRIRMRPPRLPRPRPRPGPGPRP
  shrunken log2 fold change: 2.09

## RRIRMRPPRLPRPRPRPGPHPRP
  shrunken log2 fold change: 0.256

## RRIRMRPPRLPRPRPRPGPMPRP
  shrunken log2 fold change: 1.05

## RRIRMRPPRLPRPRPRPGPPPRP
  shrunken log2 fold change: 1.23

## RRIRMRPPRLPRPRPRPGPSPRP
  shrunken log2 fold change: 1.23

## RRIRMRPPRLPRPRPRPGQEPRP
  shrunken log2 fold change: 0.605

## RRIRMRPPRLPRPRPRPGQGPRP
  shrunken log2 fold change: 0.269

## RRIRMRPPRLPRPRPRPGQIPRP
  shrunken log2 fold change: -0.00968

## RRIRMRPPRLPRPRPRPGQSPRP
  shrunken log2 fold change: 1.23

## RRIRMRPPRLPRPRPRPGRHPRP
  shrunken log2 fold change: 0.441

## RRIRMRPPRLPRPRPRPGRLPRP
  shrunken log2 fold change: 0.411

## RRIRMRPPRLPRPRPRPGRTPRP
  shrunken log2 fold change: 0.894

## RRIRMRPPRLPRPRPRPGRWPRP
  shrunken log2 fold change: 1.66

## RRIRMRPPRLPRPRPRPGSPPRP
  shrunken log2 fold change: 0.136

## RRIRMRPPRLPRPRPRPGSWPRP
  shrunken log2 fold change: 0.858

## RRIRMRPPRLPRPRPRPGTDPRP
  shrunken log2 fold change: 1.19

## RRIRMRPPRLPRPRPRPGTKPRP
  shrunken log2 fold change: 0.844

## RRIRMRPPRLPRPRPRPGTVPRP
  shrunken log2 fold change: -0.071

## RRIRMRPPRLPRPRPRPGVSPRP
  shrunken log2 fold change: 0.461

## RRIRMRPPRLPRPRPRPGWDPRP
  shrunken log2 fold change: 0.297

## RRIRMRPPRLPRPRPRPGWRPRP
  shrunken log2 fold change: 1.15

## RRIRMRPPRLPRPRPRPHADPRP
  shrunken log2 fold change: 2

## RRIRMRPPRLPRPRPRPHDNPRP
  shrunken log2 fold change: 0.0232

## RRIRMRPPRLPRPRPRPHFHPRP
  shrunken log2 fold change: -0.376

## RRIRMRPPRLPRPRPRPHFLPRP
  shrunken log2 fold change: -0.235

## RRIRMRPPRLPRPRPRPHHLPRP
  shrunken log2 fold change: 0.0151

## RRIRMRPPRLPRPRPRPHIRPRP
  shrunken log2 fold change: -0.0162

## RRIRMRPPRLPRPRPRPHKCPRP
  shrunken log2 fold change: 0.0429

## RRIRMRPPRLPRPRPRPHKNPRP
  shrunken log2 fold change: 0.195

## RRIRMRPPRLPRPRPRPHKWPRP
  shrunken log2 fold change: 0.216

## RRIRMRPPRLPRPRPRPHLFPRP
  shrunken log2 fold change: -0.0118

## RRIRMRPPRLPRPRPRPHLHPRP
  shrunken log2 fold change: -0.301
